# In patent US20070274969A1:
# Legend:
# [1] = target: rat Bub1, endogenous (rat); experiment: cell-based or functional assay
# [2] = target: human Bub1, endogenous (human) (UniProt O43683); experiment: cell-based or functional assay
# Chain of human Bub1, endogenous (human) (O43683 whole entry): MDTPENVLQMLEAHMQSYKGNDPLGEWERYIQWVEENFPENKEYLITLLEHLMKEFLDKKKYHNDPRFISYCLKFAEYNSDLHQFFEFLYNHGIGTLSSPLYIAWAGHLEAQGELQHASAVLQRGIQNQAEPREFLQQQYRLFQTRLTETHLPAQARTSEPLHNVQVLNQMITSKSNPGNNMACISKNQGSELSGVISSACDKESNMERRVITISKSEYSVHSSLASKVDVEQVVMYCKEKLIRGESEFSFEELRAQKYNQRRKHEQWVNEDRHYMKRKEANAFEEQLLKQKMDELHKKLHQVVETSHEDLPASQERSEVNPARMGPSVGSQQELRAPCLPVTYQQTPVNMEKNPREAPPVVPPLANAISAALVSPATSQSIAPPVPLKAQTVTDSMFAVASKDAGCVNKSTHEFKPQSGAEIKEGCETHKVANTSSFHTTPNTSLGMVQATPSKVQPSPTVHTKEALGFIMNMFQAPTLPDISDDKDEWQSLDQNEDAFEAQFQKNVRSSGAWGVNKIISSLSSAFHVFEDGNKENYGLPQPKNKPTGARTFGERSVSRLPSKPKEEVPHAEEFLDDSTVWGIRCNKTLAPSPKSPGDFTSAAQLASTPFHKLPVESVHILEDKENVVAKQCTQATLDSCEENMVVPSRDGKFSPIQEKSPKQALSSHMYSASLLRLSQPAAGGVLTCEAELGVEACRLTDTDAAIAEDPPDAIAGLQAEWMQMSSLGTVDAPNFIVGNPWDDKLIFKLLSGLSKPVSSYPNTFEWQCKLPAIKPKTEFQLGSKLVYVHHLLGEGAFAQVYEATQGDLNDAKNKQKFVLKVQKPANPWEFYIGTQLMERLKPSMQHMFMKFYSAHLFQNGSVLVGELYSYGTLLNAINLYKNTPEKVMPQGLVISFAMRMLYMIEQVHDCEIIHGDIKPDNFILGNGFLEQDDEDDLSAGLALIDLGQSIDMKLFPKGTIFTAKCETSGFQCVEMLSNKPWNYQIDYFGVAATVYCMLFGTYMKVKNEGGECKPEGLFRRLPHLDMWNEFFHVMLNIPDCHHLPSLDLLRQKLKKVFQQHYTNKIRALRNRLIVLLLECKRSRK
substance,measurement,setting,value
"SV40 large T antigen, wild-type (from UniProt P03070 1-708)","cells that proceed to anaphase at 24 ng/ml nocodazole, time-lapse microscopy of immortalized rat embryo fibroblasts",[1],90%
same,"% > 4N cells (endoreduplication), 100 ng/ml nocodazole",[2],45.7%
same,"mitotic index (phospho-histone H3 positive cells), nocodazole for 15 hours",[2],14.6%
